Source: PMC5159498

Columns and labels:
CDC42 Q61L (human) [1] = target: CDC42 Q61L (human) (UniProt P60953); assay: fluorescence polarisation; GRD1-CT (0-2.5 μM) or GRD2 (0-7.5 μM) titrated to tGppNHp-bound CDC42 Q61L (1 μM); 30 mM Tris/HCl pH 7.5, 150 mM NaCl, 5 mM MgCl2, 3 mM DTT, 25 °C
CDC42 Q61L (human) [2] = target: CDC42 Q61L (human) (UniProt P60953); assay: fluorescence polarisation; IQGAP1 variant titrated to mGppNHp-bound RHO protein (1 μM); equilibrium Kd (eKd), quadratic fit; 30 mM Tris/HCl pH 7.5, 150 mM NaCl, 5 mM MgCl2, 3 mM DTT, 25 °C
CDC42 Q61L (human) [3] = target: CDC42 Q61L (human) (UniProt P60953); assay: stopped-flow fluorometry; tGppNHp (tamra-GppNHp)-bound CDC42 or CDC42 Q61L (0.2 μM) rapidly mixed with IQGAP1 variant (2-10 μM GRD1-CT for Q61L); Kd = koff/kon; 30 mM Tris-HCl pH 7.5, 10 mM KH2PO4/K2HPO4, 5 mM MgCl2, 3 mM DTT
CDC42 (aa 1-178) (human) [4] = target: CDC42 (aa 1-178) (human) (UniProt P60953); assay: fluorescence polarisation; IQGAP1 variant titrated to mGDP-bound (inactive) RHO protein (1 μM), same conditions as with mGppNHp; 30 mM Tris/HCl pH 7.5, 150 mM NaCl, 5 mM MgCl2, 3 mM DTT, 25 °C
Chain of CDC42 (aa 1-178) (human) (P60953 1-178): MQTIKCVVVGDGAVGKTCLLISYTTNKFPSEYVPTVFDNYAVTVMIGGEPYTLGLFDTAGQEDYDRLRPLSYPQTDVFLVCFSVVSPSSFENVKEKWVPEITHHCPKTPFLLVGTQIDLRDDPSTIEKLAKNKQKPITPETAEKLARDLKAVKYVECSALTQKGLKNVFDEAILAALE

RAC1 (aa 1-179) (human) = RAC1 (aa 1-179) (human) (UniProt P63000); assay: fluorescence polarisation; IQGAP1 variant titrated to mGppNHp-bound RHO protein (1 μM); equilibrium Kd (eKd), quadratic fit; 30 mM Tris/HCl pH 7.5, 150 mM NaCl, 5 mM MgCl2, 3 mM DTT, 25 °C
CDC42 (aa 1-178) (human) [5] = target: CDC42 (aa 1-178) (human) (UniProt P60953); assay: as above

Chain of IQGAP1 GRD1-CT (aa 863-1657) (P46940 863-1657): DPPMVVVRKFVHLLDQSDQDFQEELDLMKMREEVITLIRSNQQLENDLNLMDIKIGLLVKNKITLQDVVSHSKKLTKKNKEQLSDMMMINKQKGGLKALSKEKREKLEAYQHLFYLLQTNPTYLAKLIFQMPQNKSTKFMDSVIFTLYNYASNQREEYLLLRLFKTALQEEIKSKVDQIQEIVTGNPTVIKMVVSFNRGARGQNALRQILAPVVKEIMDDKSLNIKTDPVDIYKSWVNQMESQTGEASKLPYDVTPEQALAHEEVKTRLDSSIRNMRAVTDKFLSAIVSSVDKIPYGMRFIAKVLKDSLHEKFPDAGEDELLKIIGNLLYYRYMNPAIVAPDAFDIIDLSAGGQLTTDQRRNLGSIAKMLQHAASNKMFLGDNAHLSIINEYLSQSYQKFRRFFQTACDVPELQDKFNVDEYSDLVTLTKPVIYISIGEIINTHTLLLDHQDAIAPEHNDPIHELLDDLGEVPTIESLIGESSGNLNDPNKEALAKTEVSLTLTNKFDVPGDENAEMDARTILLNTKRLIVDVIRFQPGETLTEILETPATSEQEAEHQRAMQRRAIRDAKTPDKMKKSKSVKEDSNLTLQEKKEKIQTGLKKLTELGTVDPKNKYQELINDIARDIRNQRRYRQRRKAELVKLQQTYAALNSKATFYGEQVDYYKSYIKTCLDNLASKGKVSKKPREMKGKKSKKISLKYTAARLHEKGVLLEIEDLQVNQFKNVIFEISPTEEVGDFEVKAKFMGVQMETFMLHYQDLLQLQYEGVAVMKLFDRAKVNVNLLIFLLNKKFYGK
Chain of IQGAP1 GRD2 (aa 962-1345) (P46940 962-1345): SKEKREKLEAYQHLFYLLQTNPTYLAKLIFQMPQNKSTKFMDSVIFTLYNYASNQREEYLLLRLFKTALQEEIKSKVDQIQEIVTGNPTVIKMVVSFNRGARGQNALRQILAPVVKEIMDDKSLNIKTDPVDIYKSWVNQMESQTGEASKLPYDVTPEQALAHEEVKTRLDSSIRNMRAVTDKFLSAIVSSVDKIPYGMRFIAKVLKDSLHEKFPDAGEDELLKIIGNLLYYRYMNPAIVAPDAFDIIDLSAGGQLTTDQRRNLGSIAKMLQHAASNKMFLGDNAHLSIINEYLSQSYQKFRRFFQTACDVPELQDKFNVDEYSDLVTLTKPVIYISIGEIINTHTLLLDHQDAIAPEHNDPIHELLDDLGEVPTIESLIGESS

Kd (CDC42 Q61L (human) [1]) | Kd (CDC42 Q61L (human) [2]) | Kd (CDC42 Q61L (human) [3]) | Kd (CDC42 (aa 1-178) (human) [4]) | Kd (RAC1 (aa 1-179) (human)) | Kd (CDC42 (aa 1-178) (human) [5]) | Substance
520 nM | 830 nM | 50 nM | – | – | – | IQGAP1 GRD1-CT (aa 863-1657) (from UniProt P46940 863-1657) (domain or fragment)
1130 nM | 2370 nM | – | 185000 nM | 81500 nM | 30200 nM | IQGAP1 GRD2 (aa 962-1345) (from UniProt P46940 962-1345) (domain or fragment)
